Earlier results, collected in publication PMC7689341.
pKd: −log10 of the molar value. Where two headings read alike, the source gives them in different places.

How the values were obtained:
IFNAR2 (Homo sapiens) [1] = molecular target: IFNAR2 (Homo sapiens) (UniProt P48551)
IFNAR2 (Homo sapiens) [2] = molecular target: IFNAR2 (Homo sapiens) (UniProt P48551); remark: listed apart in the source
IFNAR1 (Homo sapiens) = IFNAR1 (Homo sapiens) (UniProt P17181)
IFNAR2 (Mus musculus) = IFNAR2 (Mus musculus) (UniProt O35664)
Chain of IFNAR2 (Mus musculus) (O35664 22-242): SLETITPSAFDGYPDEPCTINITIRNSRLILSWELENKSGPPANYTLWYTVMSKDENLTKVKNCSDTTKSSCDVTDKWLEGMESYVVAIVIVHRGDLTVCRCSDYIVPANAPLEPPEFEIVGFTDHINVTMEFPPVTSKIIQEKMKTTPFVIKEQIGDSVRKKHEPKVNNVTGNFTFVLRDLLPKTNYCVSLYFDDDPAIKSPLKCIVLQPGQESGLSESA

IFNAR1 (Mus musculus) = IFNAR1 (Mus musculus) (UniProt P33896)
Chain of IFNAR1 (Mus musculus) (P33896 27-429): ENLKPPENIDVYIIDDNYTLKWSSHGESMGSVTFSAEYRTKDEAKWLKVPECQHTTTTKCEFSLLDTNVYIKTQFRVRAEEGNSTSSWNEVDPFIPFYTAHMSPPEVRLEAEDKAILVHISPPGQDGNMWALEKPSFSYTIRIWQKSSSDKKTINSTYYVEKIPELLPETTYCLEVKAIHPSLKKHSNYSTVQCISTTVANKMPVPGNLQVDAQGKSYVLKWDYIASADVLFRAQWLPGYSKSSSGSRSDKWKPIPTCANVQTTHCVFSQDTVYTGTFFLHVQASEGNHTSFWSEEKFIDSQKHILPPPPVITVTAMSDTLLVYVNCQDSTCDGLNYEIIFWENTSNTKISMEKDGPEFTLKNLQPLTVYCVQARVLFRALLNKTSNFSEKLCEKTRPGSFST

IFNλR1 (Homo sapiens) = IFNλR1 (Homo sapiens) (UniProt Q8IU57)
Chain of IFNλR1 (Homo sapiens) (Q8IU57 21-228): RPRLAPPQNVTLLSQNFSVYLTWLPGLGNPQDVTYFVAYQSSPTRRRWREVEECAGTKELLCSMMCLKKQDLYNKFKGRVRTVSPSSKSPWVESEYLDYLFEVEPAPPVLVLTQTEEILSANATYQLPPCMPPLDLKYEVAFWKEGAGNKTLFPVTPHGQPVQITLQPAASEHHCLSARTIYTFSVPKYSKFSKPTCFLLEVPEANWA

[3] = molecular target: IFNλ3/IFNλR1 complex (Homo sapiens) (UniProt Q8IZI9)
Chain of IFNλ3/IFNλR1 complex (Homo sapiens) (Q8IZI9 22-196, chain 1 of 2): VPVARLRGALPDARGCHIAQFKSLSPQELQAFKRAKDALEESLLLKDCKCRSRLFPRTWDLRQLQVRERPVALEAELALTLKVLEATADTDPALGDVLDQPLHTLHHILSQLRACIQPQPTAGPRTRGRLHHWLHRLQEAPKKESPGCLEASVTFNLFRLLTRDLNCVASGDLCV
Chain of IFNλ3/IFNλR1 complex (Homo sapiens) (Q8IU57 21-228, chain 2 of 2, further chain): as the sequence (Q8IU57 21-228) above

Chain of IFNAR2 (Homo sapiens) (P48551 27-243): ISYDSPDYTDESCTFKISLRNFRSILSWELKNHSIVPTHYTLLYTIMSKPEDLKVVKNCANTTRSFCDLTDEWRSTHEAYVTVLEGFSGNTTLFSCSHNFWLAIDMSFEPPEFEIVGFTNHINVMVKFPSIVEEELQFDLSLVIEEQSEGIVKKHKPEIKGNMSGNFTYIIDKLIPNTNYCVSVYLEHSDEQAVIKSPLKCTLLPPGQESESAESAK
Chain of IFNβ (from UniProt P01574) (P01574 22-187): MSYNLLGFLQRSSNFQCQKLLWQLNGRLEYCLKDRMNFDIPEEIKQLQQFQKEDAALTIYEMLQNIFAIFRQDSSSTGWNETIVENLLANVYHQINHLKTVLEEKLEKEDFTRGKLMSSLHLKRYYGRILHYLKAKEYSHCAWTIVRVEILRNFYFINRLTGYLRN
Chain of IFNβ (from UniProt P01575) (P01575 22-182): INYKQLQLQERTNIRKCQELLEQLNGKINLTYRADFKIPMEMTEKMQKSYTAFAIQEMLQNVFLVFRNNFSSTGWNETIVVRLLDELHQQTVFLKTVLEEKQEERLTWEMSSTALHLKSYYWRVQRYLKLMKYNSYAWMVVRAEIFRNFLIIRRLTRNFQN
Chain of IL-10R2 (Q08334 20-220): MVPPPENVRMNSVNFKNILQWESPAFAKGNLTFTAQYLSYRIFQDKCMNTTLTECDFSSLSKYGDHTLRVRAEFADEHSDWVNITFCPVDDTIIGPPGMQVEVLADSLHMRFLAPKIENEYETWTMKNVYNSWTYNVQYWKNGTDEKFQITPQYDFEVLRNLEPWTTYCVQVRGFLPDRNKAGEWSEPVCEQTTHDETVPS
Chain of IFNλ3 (Q8IZI9 22-196): as the sequence (Q8IZI9 22-196, chain 1 of 2) above
Chain of IFNAR1 (Homo sapiens) (P17181 28-436): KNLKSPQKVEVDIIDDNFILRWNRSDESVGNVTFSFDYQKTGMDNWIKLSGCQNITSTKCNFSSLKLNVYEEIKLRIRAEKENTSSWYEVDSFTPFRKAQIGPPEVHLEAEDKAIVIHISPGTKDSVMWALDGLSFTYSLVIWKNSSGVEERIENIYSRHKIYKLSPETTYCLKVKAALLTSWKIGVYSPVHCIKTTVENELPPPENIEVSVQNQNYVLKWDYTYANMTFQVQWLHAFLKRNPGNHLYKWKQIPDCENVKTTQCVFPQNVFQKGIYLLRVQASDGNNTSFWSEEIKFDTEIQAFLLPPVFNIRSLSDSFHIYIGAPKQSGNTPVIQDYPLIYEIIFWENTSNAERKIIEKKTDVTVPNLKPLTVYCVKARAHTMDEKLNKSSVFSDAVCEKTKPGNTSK

In the case of IFNα1 (from UniProt P0DY56), the pKd (IFNAR2 (Homo sapiens) [1]) is listed as 7.00.
For IFNβ (from UniProt P01574), the pKd (IFNAR2 (Homo sapiens) [2]) is listed as 10.00 and the pKd (IFNAR1 (Homo sapiens)) is listed as 7.52.
In the case of IFNβ (from UniProt P01575), the pKd (IFNAR2 (Mus musculus)) is given as 5.77 and the pKd (IFNAR1 (Mus musculus)) is given as 8.00.
For IFNλ3 (from UniProt Q8IZI9), the pKd (IFNλR1 (Homo sapiens)) is listed as 6.07.
For IL-10R2 (from UniProt Q08334), the pKd [3] is listed as 4.82.
